From patent US20170290886A1, “TREATMENT OF NEURODEVELOPMENTAL DISORDERS” (Academia Sinica, priority 2016, published 2017)

Biological target: T1, MeCP2 (Homo sapiens, UniProt P51608)
T1 construct: GST; purchased Prospec
Assay: In vitro SUMOylation assay with recombinant proteins
Format: biochemical
Details: E1, E2, PIAS1 and MeCP2 proteins added; FIG. 1a
Procedure: In vitro SUMOylation assay was performed by using the SUMO link kit according to the manufacturer's instructions (Active Motif, Carlsbad, Calif.). Recombinant GST-tagged MeCP2 protein (Prospec, East Brunswick, N.J.), His-tagged PIAS1 protein purified from His-bind resin (Novagen, Wis.), and GST-tagged SENP1 protein (Enzo, Ann Arbor, Mich.) were used for assays at 30° C. for 3 h and then boiled in Laemmli sample buffer at 95° C. for 10 min. The in vitro SUMOylation product was subject to 8% SDS-PAGE followed by transferring onto the NC membrane. The membrane was immunoblotted with anti-His and anti-GST antibodies.

T1 sequence (P51608 whole entry, species assumed): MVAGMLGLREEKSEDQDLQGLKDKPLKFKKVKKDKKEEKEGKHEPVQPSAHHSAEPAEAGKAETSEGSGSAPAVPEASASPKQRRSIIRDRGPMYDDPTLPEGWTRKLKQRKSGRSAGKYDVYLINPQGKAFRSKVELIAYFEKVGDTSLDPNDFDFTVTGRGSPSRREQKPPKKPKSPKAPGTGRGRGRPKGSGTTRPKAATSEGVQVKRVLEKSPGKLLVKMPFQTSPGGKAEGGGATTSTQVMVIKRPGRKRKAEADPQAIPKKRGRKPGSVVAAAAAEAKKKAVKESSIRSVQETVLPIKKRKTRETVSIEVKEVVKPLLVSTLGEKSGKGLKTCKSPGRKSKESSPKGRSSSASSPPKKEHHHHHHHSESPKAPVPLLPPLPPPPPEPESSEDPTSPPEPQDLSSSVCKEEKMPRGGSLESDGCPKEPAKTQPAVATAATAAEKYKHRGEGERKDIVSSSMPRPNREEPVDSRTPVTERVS

MeCP2 SUMOylation: blocked
B1: SENP1: an enzyme that removes the sumo molecule from sumo-conjugated protein (protein, UniProt Q9P0U3 1-644, looked up)
Sentrin-specific protease 1: MDDIADRMRMDAGEVTLVNHNSVFKTHLLPQTGFPEDQLSLSDQQILSSRQGHLDRSFTCSTRSAAYNPSYYSDNPSSDSFLGSGDLRTFGQSANGQWRNSTPSSSSSLQKSRNSRSLYLETRKTSSGLSNSFAGKSNHHCHVSAYEKSFPIKPVPSPSWSGSCRRSLLSPKKTQRRHVSTAEETVQEEEREIYRQLLQMVTGKQFTIAKPTTHFPLHLSRCLSSSKNTLKDSLFKNGNSCASQIIGSDTSSSGSASILTNQEQLSHSVYSLSSYTPDVAFGSKDSGTLHHPHHHHSVPHQPDNLAASNTQSEGSDSVILLKVKDSQTPTPSSTFFQAELWIKELTSVYDSRARERLRQIEEQKALALQLQNQRLQEREHSVHDSVELHLRVPLEKEIPVTVVQETQKKGHKLTDSEDEFPEITEEMEKEIKNVFRNGNQDEVLSEAFRLTITRKDIQTLNHLNWLNDEIINFYMNMLMERSKEKGLPSVHAFNTFFFTKLKTAGYQAVKRWTKKVDVFSVDILLVPIHLGVHWCLAVVDFRKKNITYYDSMGGINNEACRILLQYLKQESIDKKRKEFDTNGWQLFSKKSQEIPQQMNGSDCGMFACKYADCITKDRPINFTQQHMPYFRKRMVWEILHRKLL
modifications: GST tag
notes: an enzyme that removes the sumo molecule from sumo-conjugated protein
